In PMC10202812, “Resilience to autosomal dominant Alzheimer’s disease in a Reelin-COLBOS heterozygous man” (Nature Medicine, 2023):

Molecular target: T1, neuropilin 1 (NRP1) (UniProt O14786 22-856, biotinylated at a 1:2 molar ratio)
T1 construct: neuropilin 1 (NRP1), recombinant, R&D Systems catalog no; 3870-N1-025; source: bought: R&D Systems (catalog no. 3870-N1-025)
T1 sequence (looked up): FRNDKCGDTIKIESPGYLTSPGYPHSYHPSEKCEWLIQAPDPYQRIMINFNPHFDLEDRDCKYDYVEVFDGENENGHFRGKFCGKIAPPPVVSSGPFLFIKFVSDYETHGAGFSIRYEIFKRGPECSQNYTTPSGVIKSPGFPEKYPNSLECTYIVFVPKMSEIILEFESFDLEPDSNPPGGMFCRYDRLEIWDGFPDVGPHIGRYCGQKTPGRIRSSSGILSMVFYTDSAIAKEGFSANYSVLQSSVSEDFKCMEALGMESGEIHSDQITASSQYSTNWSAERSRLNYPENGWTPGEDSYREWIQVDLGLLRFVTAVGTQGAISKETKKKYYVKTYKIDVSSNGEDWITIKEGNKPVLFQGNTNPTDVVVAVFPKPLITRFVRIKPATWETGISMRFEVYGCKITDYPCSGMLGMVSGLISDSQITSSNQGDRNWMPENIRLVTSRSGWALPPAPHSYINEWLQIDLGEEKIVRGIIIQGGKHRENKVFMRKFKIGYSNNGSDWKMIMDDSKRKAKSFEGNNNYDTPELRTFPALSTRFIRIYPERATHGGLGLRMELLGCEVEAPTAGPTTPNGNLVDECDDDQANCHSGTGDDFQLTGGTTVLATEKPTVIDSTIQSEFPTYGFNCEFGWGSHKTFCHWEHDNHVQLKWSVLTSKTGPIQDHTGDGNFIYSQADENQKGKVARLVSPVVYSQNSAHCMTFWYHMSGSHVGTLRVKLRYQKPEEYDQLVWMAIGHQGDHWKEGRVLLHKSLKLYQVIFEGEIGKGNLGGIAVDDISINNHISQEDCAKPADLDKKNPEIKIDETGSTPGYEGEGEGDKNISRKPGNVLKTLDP
Assay: BLI; biotinylated NRP1 immobilised on streptavidin biosensor tips (Octet); 30 °C, 1,000 rpm; 240 s association, 300 s dissociation; SD Buffer (PBS, 0.05% Tween 20, 0.01% BSA, pH 7.4); 1:1 binding model, global fitting
Settings: both partners purified

- fold affinity against WT CTR-RELN: 10 fold
B1: Fc-fusion CTR-RELN H3447R (CTR-RELN-COLBOS) (Fc fusion, human, UniProt P78509 3429-3460, looked up)
chain: STRKQNYMMNFSRQHGLRRFYNRRRRSLRRYP
notes: Reelin (RELN), C-terminal region, amino acids 3,429-3,460 (numbers of the 3,460-residue human protein), with the natural variant H3447R (COLBOS); source: DNA encoding amino acids 3,429-3,460 of RELN-CTR cloned into the pFUSEN-hG2Fc plasmid (InvivoGen)
